Data from patent US20180298101A1 (published 2018).
Like-named read-outs stand apart in the source and are kept apart here. Non-standard residues stand in square brackets, D forms with d. No end group written: not given here. pY = N[C@@H](Cc1ccc(OP(=O)(O)O)cc1)C(=O)O

Tests used:
Assay in all cases: ITC
[1] = target: T1, hCIS-SH2-BC complex (ternary complex of human GST-CIS-SH2 construct, residues 66-258 with PEST region 174-202 … (UniProt Q9NSE2 66-258; Q15370 1-118; P83940 17-112)
[2] = target: T2, human CIS lacking both the N-terminal region (residues 1-66) and the PEST motif (ΔNT/ΔPEST) in trimeric … (UniProt Q9NSE2 67-258; Q15370 1-118; Q15369 17-112)
[3] = target: human CIS lacking the PEST motif (ΔPEST) in trimeric complex with elongin B and elongin C (UniProt Q9NSE2 1-258; Q15370 1-118; Q15369 17-112)
[4] = target: T2, human CIS lacking both the N-terminal …; remark: listed apart in the source
[5] = target: human full-length CIS in trimeric complex with elongin B and elongin C (UniProt Q9NSE2 1-258; Q15370 1-118; Q15369 17-112)
[6] = target: T1, hCIS-SH2-BC complex (ternary complex of …); remark: listed apart in the source

Row | Binder | Kd [1] | Kd [2] | Kd [6] | further results
1 | LLPLDKDYYVVREPGQ (not fully specified (residue 8)) [JAK3 activation loop phosphopeptide (Tyr980 phosphorylated)] | 800 nM |  |  | 
2 | AIETDKE[pY]YTAKDDRD [JAK1-Y1034 phosphopeptide with an alanine substitution at the +3 position] |  | 8300 nM |  | 
3 | AIETDKE[pY]YTVKADRD [JAK1-Y1034 phosphopeptide with an alanine substitution at the +5 position] |  | 6300 nM |  | 
4 | AIETDKE[pY]YTVKDDRD [JAK1 activation loop phosphopeptide (Tyr1034 phosphorylated)] | 2100 nM | 2200 nM |  | Kd [3]: 5300 nM; Kd [4]: 2200 nM; Kd [5]: 5300 nM
5 | DDA[pY]CTFPSRDD [IL-2Rβ cytoplasmic domain phosphopeptide (Tyr392 phosphorylated)] | 1800 nM |  | 1800 nM | 
6 | AIETAKE[pY]YTVKDDRD [JAK1-Y1034 phosphopeptide with an alanine substitution at the -3 position] |  | 3500 nM |  | 
7 | CQV[pY]FTYDPYSE [IL-2Rβ cytoplasmic domain phosphopeptide (Tyr355 phosphorylated)] | 940 nM |  | 940 nM | 
8 | YDP[pY]SEEDPDEG [IL-2Rβ cytoplasmic domain phosphopeptide (Tyr361 phosphorylated)] | 1500 nM |  | 1500 nM | 
